As usually defined, the Kd is the constant that tells how readily two partners part at equilibrium. Low values mean a tighter complex, high ones a looser complex.

First the molecules themselves.
B1: ExD-AcD fragment of APP695 (without Fc) (ligand)
chain: SVDSADAEEDDSDVWWGGADTDYADGGEDKVVEVAEEEEVADVEEEEADDDEDVEDGDEVEEEAEEPYEEATERTTSTATTTTTTTESVEEVVRVPTTAASTPD
notes: also called APP695 ExD-AcD fragment; sAPPα ExD-AcD
B2: sAPPα (Fc cleaved) (ligand)
chain: LEVPTDGNAGLLAEPQIAMFCGKLNMHMNVQNGKWESDPSGTKTCIGTKEGILQYCQEVYPELQITNVVEANQPVTIQNWCKRGRKQCKTHTHIVIPYRCLVGEFVSDALLVPDKCKFLHQERMDVCETHLHWHTVAKETCSEKSTNLHDYGMLLPCGIDKFRGVEFVCCPLAEESDSVDSADAEEDDSDVWWGGADTDYADGGEDKVVEVAEEEEVADVEEEEADDDEDVEDGDEVEEEAEEPYEEATERTTSTATTTTTTTESVEEVVRVPTTAASTPDAVDKYLETPGDENEHAHFQKAKERLEAKHRERMSQVMREWEEAERQAKNLPKADKKAVIQHFQEKVESLEQEAANERQQLVETHMARVEAMLNDRRRLALENYITALQAVPPRPHHVFNMLKKYVRAEQKDRQHTLKHFEHVRMVDPKKAAQIRSQVMTHLRVIYERMNQSLSLLYNVPAVAEEIQDEVDELLQKEQNYSDDVLANMISEPRISYGNDALMPSLTETKTTVELLPVNGEFSLDDLQPWHPFGVDSVPANTENEVEPVDARPAADRGLTTRPGSGLTNIKTEEISEVKMDAEFGHDSGFEVRHQK
notes: Made as an Fc fusion in HEK293 cells; also called soluble amyloid precursor protein α; purified sAPPα
B3: Sushi domain 1 of the GABAB1a receptor, purified (receptor)
chain: TSEGCQIIHPPWEGGIRYRGLTRDQVKAINFLPVDYEIEYVCRGEREVVGPKVRKCLANGSWTDMDTPSRCV
notes: also called Sushi 1; sushi1

Assay [1] deals with B3. As to the kind of experiment: ITC, peptide (300 uM) injected into Sushi-1 protein (30 uM), PBS; 17mer peptide, APP695 204-220. The method, then:
(§1) All ITC experiments were carried out on a MicroCal iTC200 system. For ITC experiments involving APP constructs expressed in HEK293 cells, the purified GABABR1a-Sushi1 domain, sAPPα, CuBDAcD, AcD and CuBD constructs were buffer-exchanged by size exclusion chromatography in 20 mM Na-HEPES pH 7.0, 150 mM NaCl supplemented with 5 mM CaCl2. Concentrated samples were diluted and degassed before the experiment at the concentrations reported in the Fig. legends. sAPP fragments (all of them at 30 μM) were placed in the MicroCal sample cell and matching buffer was placed in the reference cell. Sushi1 (300 μM) was in the syringe and was injected into the cell in a series of 1 μL injections at 25° C. All the datasets were subtracted with a reference data consisting of serial injections of Sushi 1 in the cell, containing buffer only under the same conditions. For ITC experiments involving synthetic APP peptides, the Sushi-1 protein was dialysed overnight to PBS buffer. The 17-mer peptide was resuspended in H2O:acetonitrile (5:1) at a stock concentration of 3 mM, and diluted in PBS to 300 uM. In order to avoid buffer-buffer mismatches, the same amount of H2O:acetonitrile mixture was also added when diluting the protein to a 30 uM concentration. The 9-mer peptide was resuspended in PBS. Titrations comprised 26×1.5 μL injections of peptide into the protein, with 90 s intervals. […]
On the technique in general: In ITC the heat of successive injections is recorded.

For assay [2], the target named is B3. As to the kind of experiment: ITC of the synthetic peptide with purified sushi 1 (peptide injected into the protein); N is the fitted stoichiometry. Here is the method: as §1
Assay [3] concerns the target B3. Put plainly: ITC of the synthetic peptide … (211-220) with purified sushi 1. Here is the method: as §1
The target of assay [4] is B3. As to the kind of experiment: ITC, sushi1 (300 µM) injected into ExD-AcD (30 µM); N is the fitted stoichiometry on the Molar Ratio axis. Here is the method: as §1
The target in assay [5] is B3. As to the kind of experiment: ITC with purified sushi 1. The method, then:
as §1

Assay [6] has as its target B3. As to the kind of experiment: ITC, sushi1 (300 µM) injected into sAPPα (30 µM); N is the fitted stoichiometry on the Molar Ratio axis. Here is the method:
as §1

Assay [7] concerns the target B1. Put plainly: ITC, sushi1 (300 µM) injected into ExD-AcD (30 µM). The method, then: as §1
The assay “sAPPα (Fc cleaved)” deals with B2. As to the kind of experiment: ITC, Sushi1 (300 µM) injected into sAPPα (30 µM), 25° C. The method, then:
as §1

Consider DDSDVWWGGADTDYADG (also called 17AA stretch) [synthetic 17mer peptide, APP695 204-220AA], for which the dissociation constant Kd in assay [1] stood at 810 nM. In addition, in assay [2], the N is 0.72. On to GGADTDYADG [synthetic peptide, APP695 residues 211-220], for which the binding result in assay [3] is reported as “no binding”.

In turn, DDSDVWWGG (also called 204-212AA) [synthetic 9mer peptide, APP695 residues 204-212] gave a N in assay [2] of 0.96. Consider B1, for which the N in assay [4] amounted to 1.16. Besides, the molar ratio in assay [5] is approximately 1. As to B2, in assay [6], the N is 1.12. As for B3, the results for the dissociation constant Kd (in assay [7]; with sAPPα (Fc cleaved)) were 621 nM and 431 nM, respectively.

The values above are taken from patent publication US20190225662A1 (VIB VZW, published 2019).
